Our source for the killing effect of NK cells on 3T3-Luc/hMICA cells values is patent US20210371823A1.

The target of this assay is human MICA protein (hMICA) (human) (UniProt Q29983). Kind of assay: cell-based or functional assay.
Sequence of UniProt Q29983 (Q29983 24-383): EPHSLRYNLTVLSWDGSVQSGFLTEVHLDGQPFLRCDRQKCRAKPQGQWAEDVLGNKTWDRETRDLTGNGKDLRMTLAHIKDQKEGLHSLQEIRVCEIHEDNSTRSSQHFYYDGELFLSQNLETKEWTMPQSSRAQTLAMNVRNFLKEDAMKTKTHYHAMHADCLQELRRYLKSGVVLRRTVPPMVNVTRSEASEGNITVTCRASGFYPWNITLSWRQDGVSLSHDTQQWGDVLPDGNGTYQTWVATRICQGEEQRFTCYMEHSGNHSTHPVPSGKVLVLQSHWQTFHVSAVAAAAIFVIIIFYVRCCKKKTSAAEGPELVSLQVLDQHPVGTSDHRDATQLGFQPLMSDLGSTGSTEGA

“activation receptor NKG2D on NK cells (from UniProt P26718 1-216)”: the killing effect of NK cells on 3T3-Luc/hMICA cells at effector-target ratio 1:1 (luciferase-based killing assay) amounted to 60%.
